B1: brazzein: Sweet protein of Pentadiplandra brazzeana Baillon or a recombinant form; tested batch secreted from Aspergillus oryzae (SEQ ID NO: 2) (protein)
chain: MQFTTILSIGITVFGLANTGAFAAPQPVPEAYAVSDPEAHPDDFAGMDANQLQKREDKCKKVYENYPVSKCQLANQCNYDCKLDKHARSGECFYDEKRNLQCICDYCEY

Assays:
[1] = Lamphear et al. 2005; cited from earlier work
[2] = system: taste panel of three persons; test: pH profile of the sweet taste of brazzein compared to sucrose, in 5 g/l whey protein; assay type: in vivo, human; details: 75 mg/l brazzein
Description: A taste panel of three persons estimated the pH profile of the sweet taste of brazzein compared to sucrose. 5 g/l whey protein (Lacprodan DI-9224, Arla Foods Ingredients) with 0%, 2%, 4%, 6%, 8%, 10%, 12%, 14% and 16% sucrose or 75 mg/l brazzein was adjusted with H3PO4, Na2HPO4 or NaOH to a final pH of […], 4.0, 5.0, 7.0 and 9.0.

[3] = system: test taste panel of six persons; test: Sensory evaluation of the sweetness of brazzein compared to sucrose, in 20% skim milk; assay type: in vivo, human; details: 50 mg/l brazzein in 20% skim milk
Source text: Sweet protein: The term “sweet protein” as used herein refers to a protein having an intense sweet taste which is suitable for sweetening of food, beverage and/or medication products for human consumption. On weight basis, a sweet protein according to the present invention may be at least 100, preferably at least 200, more preferably at least 500, and even more preferably at least 1,000, times sweeter than sucrose, when compared to a 2% solution of sucrose. For purposes of the present invention, comparison of sweetness may be determined by testing human perception of sweetness of the protein against known controls using varied concentrations of the protein being diluted in water or in an aqueous solution which avoid adsorption on surfaces, such as 20% skim milk, e.g., as described in Example 3 of the present application. A test taste panel of six persons was used to evaluate the brazzein sweetness compared to sucrose. The brazzein batch from Example 2 was diluted 30 fold to a final conc. of 50 mg/l with 20% skim milk in order to avoid adsorption on surfaces. The sweetness was estimated using a standard of 0%, 0.68%, 1.37%, 2.74%, 5.48%, 11.0%, 21.9% (w/v) sucrose diluted in 20% (v/v) skim milk. The sweetness of this 50 mg/l brazzein dilution corresponded to an average sweetness of 2.57% (w/v) sucrose±0.55% sucrose (SD). Thus, the brazzein batch is 510 times sweeter than sucrose on weight basis at the present condition. The sweet taste delay of the brazzein was estimated to be 1.5 sec±1.2 sec (SD).

[4] = system: test taste panel of three persons; test: Sucrose replacement in yoghurt drink, sweetness in 23% Cheasy A38; assay type: in vivo, human
Description: A test taste panel of three persons was made to evaluate brazzein sweetness in yoghurt drink. The yoghurt product Cheasy A38 (Arla Foods), which contains 0.1% milk fat, 4.3% milk protein, was diluted to a final conc. of 1% milk protein, with sucrose or a solution of brazzein produced in A. oryzae. […] Thus, at the present condition in 23% Cheasy A38, the brazzein batch is 930 times sweeter than sucrose on weight basis.
Furthermore, the sweetness of brazzein and sucrose were additive as 6% sucrose+75 mg/l brazzein, taste like 12.7%±0.6% (SD) sucrose in 23% Cheasy A38.

[5] = background statement; cited from earlier work
[6] = background statement; cited from earlier work; remark: listed apart in the source

Molecule | sweetness relative to the form having an N-terminal pyroglutamate [1] | sucrose equivalent sweet taste ([2]; pH 2.0) [% sucrose] | sucrose equivalent sweet taste ([2]; pH 3.0) [% sucrose] | sucrose equivalent sweet taste ([2]; pH 4.0) [% sucrose] | sucrose equivalent sweet taste ([2]; pH 5.0) [% sucrose] | sucrose equivalent sweet taste ([2]; pH 7.0) [% sucrose] | sucrose equivalent sweet taste ([2]; pH 9.0) [% sucrose] | times sweeter than sucrose on weight basis [3] [times] | sweet taste delay ([3]; SD 1.2 sec) [s] | average sweetness corresponding to sucrose ([3]; panel of six, SD 0.55% sucrose) | times sweeter than sucrose on weight basis ([4]; 75 mg/l brazzein in 23% Cheasy A38) [times] | sweetness corresponding to sucrose ([4]; 75 mg/l brazzein in 23% Cheasy A38, SD 1%) [% sucrose] | sweetness of brazzein plus sucrose, tastes like sucrose ([4]; 6% sucrose + 75 mg/l brazzein in 23% Cheasy A38, SD 0.6%) [% sucrose] | sweet-taste delay sensation ([4]; in the presence of 6% sucrose, 23% Cheasy A38) | heat stability [5] | solubility in water [6] [mg/mL]
53-amino acid form: Natural brazzein form lacking the N-terminal glutamine or pyroglutamate; amino acids 2 to 54 of SEQ ID NO: 2 (QFTTILSIGITVFGLANTGAFAAPQPVPEAYAVSDPEAHPDDFAGMDANQLQK) | twice as sweet |  |  |  |  |  |  |  |  |  |  |  |  |  |  | 
B1 |  | 6.0 | 6.0 | 4.3 | 6.3 | 5.0 | 2.7 | 510 | 1.5 | 2.57 % (w/v) sucrose | 930 | 7 | 12.7 | almost removed | can withstand heat | > 50
